# Assay results from patent US20040077046.
# Tested on: 3H-acetylated histone H4 peptide ([3H]-Ac(H41-24))
substance,measurement,value
flag epitope-tagged HDAC9 (HDAC9v1 with C-terminal flag tag),in vitro histone deacetylase assay (release of 3H-acetate from the peptide by immunoprecipitated enzyme),HDAC9 could deacetylate the histone peptide substrate at a level that was equivalent to UDAC3 and HDAC4
